Measurements published in paper doi:10.1101/2025.02.03.636340.

Biological target: HA-SNAP-mGluR3 (rat metabotropic glutamate receptor 3) (rat), P31422
Assay: SiMPull with photobleaching step analysis
Details: remark: other sources report otherwise

- % of spots with 2 bleaching steps in the receptor channel: 50%
- stoichiometry N: 2
B1: HA-SNAP-mGluR3 (rat metabotropic glutamate receptor 3), P31422 23-879 (receptor)
chain: LGDHNFMRREIKIEGDLVLGGLFPINEKGTGTEECGRINEDRGIQRLEAMLFAIDEINKDNYLLPGVKLGVHILDTCSRDTYALEQSLEFVRASLTKVDEAEYMCPDGSYAIQENIPLLIAGVIGGSYSSVSIQVANLLRLFQIPQISYASTSAKLSDKSRYDYFARTVPPDFYQAKAMAEILRFFNWTYVSTVASEGDYGETGIEAFEQEARLRNICIATAEKVGRSNIRKSYDSVIRELLQKPNARVVVLFMRSDDSRELIAAANRVNASFTWVASDGWGAQESIVKGSEHVAYGAITLELASHPVRQFDRYFQSLNPYNNHRNPWFRDFWEQKFQCSLQNKRNHRQVCDKHLAIDSSNYEQESKIMFVVNAVYAMAHALHKMQRTLCPNTTKLCDAMKILDGKKLYKEYLLKINFTAPFNPNKGADSIVKFDTFGDGMGRYNVFNLQQTGGKYSYLKVGHWAETLSLDVDSIHWSRNSVPTSQCSDPCAPNEMKNMQPGDVCCWICIPCEPYEYLVDEFTCMDCGPGQWPTADLSGCYNLPEDYIKWEDAWAIGPVTIACLGFLCTCIVITVFIKHNNTPLVKASGRELCYILLFGVSLSYCMTFFFIAKPSPVICALRRLGLGTSFAICYSALLTKTNCIARIFDGVKNGAQRPKFISPSSQVFICLGLILVQIVMVSVWLILETPGTRRYTLPEKRETVILKCNVKDSSMLISLTYDVVLVILCTVYAFKTRKCPENFNEAKFIGFTMYTTCIIWLAFLPIFYVTSSDYRVQTTTMCISVSLSGFVVLGCLFAPKVHIVLFQPQKNVVTHRLHLNRFSVSGTATTYSQSSASTYVPTVCNGREVLDSTTSSL
modifications: here or on the partner: SNAP tag labelled with SBG-JF646; SNAP tag labelled with SBG-JF646
